# Experimental data reported in patent US20220185889.
# B1: complement component S1 (enzyme, UniProt P09871 16-688, looked up, species assumed)
# Complement C1s subcomponent: EPTMYGEILSPNYPQAYPSEVEKSWDIEVPEGYGIHLYFTHLDIELSENCAYDSVQIISGDTEEGRLCGQRSSNNPHSPIVEEFQVPYNKLQVIFKSDFSNEERFTGFAAYYVATDINECTDFVDVPCSHFCNNFIGGYFCSCPPEYFLHDDMKNCGVNCSGDVFTALIGEIASPNYPKPYPENSRCEYQIRLEKGFQVVVTLRREDFDVEAADSAGNCLDSLVFVAGDRQFGPYCGHGFPGPLNIETKSNALDIIFQTDLTGQKKGWKLRYHGDPMPCPKEDTPNSVWEPAKAKYVFRDVVQITCLDGFEVVEGRVGATSFYSTCQSNGKWSNSKLKCQPVDCGIPESIENGKVEDPESTLFGSVIRYTCEEPYYYMENGGGGEYHCAGNGSWVNEVLGPELPKCVPVCGVPREPFEEKQRIIGGSDADIKNFPWQVFFDNPWAGGALINEYWVLTAAHVVEGNREPTMYVGSTSVQTSRLAKSKMLTPEHVFIHPGWKLLEVPEGRTNFDNDIALVRLKDPVKMGPTVSPICLPGTSSDYNLMDGDLGLISGWGRTEKRDRAVRLKAARLPVAPLRKCKEVKVEKPTADAEAYVFTPNMICAGGEKGMDSCKGDSGGAFAVQDPNDKTKFYAAGLVSWGPQCGTYGLYTRVKNYVDWIMKTMQENSTPRED
# Biological target: CTLA-4 Ig functionalized with GzmB substrate (UniProt P16410)
# Sequence (P16410 38-161): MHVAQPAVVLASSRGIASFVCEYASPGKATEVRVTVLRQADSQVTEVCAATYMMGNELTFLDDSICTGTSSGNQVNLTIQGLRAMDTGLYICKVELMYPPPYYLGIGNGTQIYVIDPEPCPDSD
protein,measurement,value
B1,in vitro cleavage assay,"no cross-cleavage by matrix, complement, or immune proteases"
